According to patent US20050142582:
pKd: −log10 of the molar value.

Tested on: USF1 (upstream stimulatory factor) (Ciona intestinalis)
Assay: SPR
Conditions: binding good, dimer

Sequence of USF1 (upstream stimulatory factor) (Ciona intestinalis) (chain, as listed by the source): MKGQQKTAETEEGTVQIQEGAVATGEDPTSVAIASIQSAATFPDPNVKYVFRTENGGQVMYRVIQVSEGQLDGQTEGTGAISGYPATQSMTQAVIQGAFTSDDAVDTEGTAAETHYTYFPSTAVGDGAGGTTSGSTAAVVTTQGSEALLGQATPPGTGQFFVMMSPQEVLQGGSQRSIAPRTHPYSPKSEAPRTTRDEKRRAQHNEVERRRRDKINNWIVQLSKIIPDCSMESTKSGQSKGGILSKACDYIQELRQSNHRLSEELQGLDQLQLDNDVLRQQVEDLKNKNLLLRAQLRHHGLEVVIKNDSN

Sequence	pKd
GGTATTGAGGGTCGCATCGGCAAAAAGGATTGCCCAGGTCTGCTGTCTAGCCGGATTCGATGGCTCTAACTCTCCTCT [6H1]	7.44
GGTATTGAGGGTCGCATCGGCTTCAGGTTGGTCTGGTTGGGTTTGGCTCCTGTGTACGGATGGCTCTAACTCTCCTCT [6H5]	6.75
